Values of other authors in publication PMC11168107.
Read-outs that look alike come from different tables or passages of the source.

What was measured:
Bin1 SH3 (Homo sapiens) [1] = molecular target: Bin1 SH3 (Homo sapiens) (UniProt O00499)
Bin1 SH3 (Homo sapiens) [2] = molecular target: Bin1 SH3 (Homo sapiens) (UniProt O00499); remark: listed apart in the source

Sequence of UniProt O00499 (O00499 517-593): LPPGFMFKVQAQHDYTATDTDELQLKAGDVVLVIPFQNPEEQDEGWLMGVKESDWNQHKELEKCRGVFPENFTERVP

Kd (Bin1 SH3 (Homo sapiens) [1])	Kd (Bin1 SH3 (Homo sapiens) [2])	Substance
33 µM		MYC 1-88 (from UniProt P01106)
	4.2 µM	MYC 55-68 (from UniProt P01106)
